Test results from patent publication US20260327291 (published 2026).

Target: 2019-nCoV N protein (SARS-CoV-2, UniProt P0DTC9)
Assay: BLI

B1: WT anti-N antibody (antibody, V domains shown)
VH: QIQLVQSGPELKKPGETVKISCKASGFTFTDYAMNWVKQAPGKGLKWMGWLNTYSGEPTYAEDFKGRFAFSLETSASTAYLQINNLKNEDTATYFCARTAILRSYFDYWGQGTTLTVSS
VL: DIVMTQSHKFMSTSVGDRVSITCKASEDLSTALAWCQQKPGQSPKLLIYWGSTRHSGVPDRFTGIRSGTDYTLTISSVQAEDLALYYCQQHWSTPLTFGAGTKLELKR
- Kd: 7.25 nM
